# Source: paper PMC4176181, “Multifaceted role of the Topo IIIα–RMI1-RMI2 complex and DNA2 in the BLM-dependent pathway of DNA break end resection”
# T1: RMI1-RMI2 (Homo sapiens, UniProt Q9H9A7;Q96E14 1-625;1-147)
# T1 sequence 1: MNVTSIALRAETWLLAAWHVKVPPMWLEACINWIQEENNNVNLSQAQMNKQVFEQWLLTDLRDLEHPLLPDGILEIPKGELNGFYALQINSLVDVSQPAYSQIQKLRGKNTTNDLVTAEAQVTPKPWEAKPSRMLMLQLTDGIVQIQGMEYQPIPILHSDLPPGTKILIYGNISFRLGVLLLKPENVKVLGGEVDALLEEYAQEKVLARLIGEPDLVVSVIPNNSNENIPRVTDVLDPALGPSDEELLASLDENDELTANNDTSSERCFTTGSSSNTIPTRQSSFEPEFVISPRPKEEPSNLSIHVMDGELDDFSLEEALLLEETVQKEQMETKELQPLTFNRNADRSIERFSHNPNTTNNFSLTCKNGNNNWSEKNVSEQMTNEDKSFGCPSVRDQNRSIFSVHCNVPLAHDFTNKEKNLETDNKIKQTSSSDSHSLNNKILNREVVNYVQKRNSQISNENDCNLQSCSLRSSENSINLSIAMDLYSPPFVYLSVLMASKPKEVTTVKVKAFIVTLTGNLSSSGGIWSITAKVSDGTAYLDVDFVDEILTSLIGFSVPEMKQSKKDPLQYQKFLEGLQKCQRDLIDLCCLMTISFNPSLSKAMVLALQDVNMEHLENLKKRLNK
# T1 sequence 2: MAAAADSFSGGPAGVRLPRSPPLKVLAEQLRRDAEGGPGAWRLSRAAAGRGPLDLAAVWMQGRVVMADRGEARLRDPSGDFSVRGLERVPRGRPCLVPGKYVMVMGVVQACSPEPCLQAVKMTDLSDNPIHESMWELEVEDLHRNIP
# T2: Topo IIIα (Homo sapiens, UniProt Q13472 1-1001)
# T2 sequence: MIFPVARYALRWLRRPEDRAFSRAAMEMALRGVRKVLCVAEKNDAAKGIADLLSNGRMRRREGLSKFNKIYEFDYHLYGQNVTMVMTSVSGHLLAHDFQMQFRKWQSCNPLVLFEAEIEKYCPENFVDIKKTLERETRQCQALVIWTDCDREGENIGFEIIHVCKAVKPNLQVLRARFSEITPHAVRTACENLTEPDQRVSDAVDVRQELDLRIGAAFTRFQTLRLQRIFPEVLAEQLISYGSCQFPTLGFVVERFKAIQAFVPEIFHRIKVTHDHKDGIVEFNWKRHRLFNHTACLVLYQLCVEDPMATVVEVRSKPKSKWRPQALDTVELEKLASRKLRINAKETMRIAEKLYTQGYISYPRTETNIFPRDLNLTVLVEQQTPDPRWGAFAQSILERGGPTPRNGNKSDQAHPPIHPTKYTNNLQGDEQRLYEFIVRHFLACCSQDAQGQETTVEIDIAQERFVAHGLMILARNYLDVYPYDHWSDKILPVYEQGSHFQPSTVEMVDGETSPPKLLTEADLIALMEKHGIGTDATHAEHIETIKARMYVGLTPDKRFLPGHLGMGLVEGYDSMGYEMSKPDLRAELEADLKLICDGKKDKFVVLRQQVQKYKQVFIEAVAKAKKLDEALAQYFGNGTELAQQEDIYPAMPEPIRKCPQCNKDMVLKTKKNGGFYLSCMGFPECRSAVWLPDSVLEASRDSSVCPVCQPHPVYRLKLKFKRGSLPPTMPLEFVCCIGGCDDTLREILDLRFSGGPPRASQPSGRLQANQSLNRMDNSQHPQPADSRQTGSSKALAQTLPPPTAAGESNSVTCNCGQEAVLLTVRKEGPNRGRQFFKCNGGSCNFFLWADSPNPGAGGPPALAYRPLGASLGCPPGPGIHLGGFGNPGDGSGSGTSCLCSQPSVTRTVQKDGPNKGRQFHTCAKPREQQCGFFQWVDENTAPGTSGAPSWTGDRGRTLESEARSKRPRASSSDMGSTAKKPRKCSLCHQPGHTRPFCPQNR
# Tests used:
# [1] = molecular target: BLM;DNA2-D277A (Homo sapiens;Homo sapiens, UniProt P54132;P51530 1-1417;1-1060, |D277A); assay: EMSA; 7.5-15 nM BLM with 10 or 20 nM DNA2-D277A; binding enhanced over BLM alone; no ATP, no Mg2+; EMSA: 35 mM Tris-HCl pH 7.5, 1 mM DTT, 100 ng/μl BSA, 2 mM MgCl2, 100 mM NaCl, 25°C, 20 min, 5 nM DNA ends (Mg2+ and ATP omitted in Figure 3B); details: protein: recombinant;recombinant; copies: 1;1; label: 32P; blunt
# [2] = molecular target: T1, RMI1-RMI2; assay: EMSA; 25-100 nM protein; EMSA: 35 mM Tris-HCl pH 7.5, 1 mM DTT, 100 ng/μl BSA, 2 mM MgCl2, 100 mM NaCl, 25°C, 20 min, 5 nM DNA ends (Mg2+ and ATP omitted in Figure 3B); details: protein: recombinant; copies: 1;1; label: 32P; blunt
# [3] = molecular target: T2, Topo IIIα; assay: EMSA; 25-100 nM protein; two discrete complexes; EMSA: 35 mM Tris-HCl pH 7.5, 1 mM DTT, 100 ng/μl BSA, 2 mM MgCl2, 100 mM NaCl, 25°C, 20 min, 5 nM DNA ends (Mg2+ and ATP omitted in Figure 3B); details: protein: recombinant; label: 32P; blunt
# [4] = molecular target: T2, Topo IIIα; assay: EMSA; 25-100 nM protein; streptavidin on one end; shifted efficiently; EMSA: 35 mM Tris-HCl pH 7.5, 1 mM DTT, 100 ng/μl BSA, 2 mM MgCl2, 100 mM NaCl, 25°C, 20 min, 5 nM DNA ends (Mg2+ and ATP omitted in Figure 3B); details: protein: recombinant; label: 32P; blunt
# Sequence of BLM;DNA2-D277A (P54132 whole entry, chain 1 of 2): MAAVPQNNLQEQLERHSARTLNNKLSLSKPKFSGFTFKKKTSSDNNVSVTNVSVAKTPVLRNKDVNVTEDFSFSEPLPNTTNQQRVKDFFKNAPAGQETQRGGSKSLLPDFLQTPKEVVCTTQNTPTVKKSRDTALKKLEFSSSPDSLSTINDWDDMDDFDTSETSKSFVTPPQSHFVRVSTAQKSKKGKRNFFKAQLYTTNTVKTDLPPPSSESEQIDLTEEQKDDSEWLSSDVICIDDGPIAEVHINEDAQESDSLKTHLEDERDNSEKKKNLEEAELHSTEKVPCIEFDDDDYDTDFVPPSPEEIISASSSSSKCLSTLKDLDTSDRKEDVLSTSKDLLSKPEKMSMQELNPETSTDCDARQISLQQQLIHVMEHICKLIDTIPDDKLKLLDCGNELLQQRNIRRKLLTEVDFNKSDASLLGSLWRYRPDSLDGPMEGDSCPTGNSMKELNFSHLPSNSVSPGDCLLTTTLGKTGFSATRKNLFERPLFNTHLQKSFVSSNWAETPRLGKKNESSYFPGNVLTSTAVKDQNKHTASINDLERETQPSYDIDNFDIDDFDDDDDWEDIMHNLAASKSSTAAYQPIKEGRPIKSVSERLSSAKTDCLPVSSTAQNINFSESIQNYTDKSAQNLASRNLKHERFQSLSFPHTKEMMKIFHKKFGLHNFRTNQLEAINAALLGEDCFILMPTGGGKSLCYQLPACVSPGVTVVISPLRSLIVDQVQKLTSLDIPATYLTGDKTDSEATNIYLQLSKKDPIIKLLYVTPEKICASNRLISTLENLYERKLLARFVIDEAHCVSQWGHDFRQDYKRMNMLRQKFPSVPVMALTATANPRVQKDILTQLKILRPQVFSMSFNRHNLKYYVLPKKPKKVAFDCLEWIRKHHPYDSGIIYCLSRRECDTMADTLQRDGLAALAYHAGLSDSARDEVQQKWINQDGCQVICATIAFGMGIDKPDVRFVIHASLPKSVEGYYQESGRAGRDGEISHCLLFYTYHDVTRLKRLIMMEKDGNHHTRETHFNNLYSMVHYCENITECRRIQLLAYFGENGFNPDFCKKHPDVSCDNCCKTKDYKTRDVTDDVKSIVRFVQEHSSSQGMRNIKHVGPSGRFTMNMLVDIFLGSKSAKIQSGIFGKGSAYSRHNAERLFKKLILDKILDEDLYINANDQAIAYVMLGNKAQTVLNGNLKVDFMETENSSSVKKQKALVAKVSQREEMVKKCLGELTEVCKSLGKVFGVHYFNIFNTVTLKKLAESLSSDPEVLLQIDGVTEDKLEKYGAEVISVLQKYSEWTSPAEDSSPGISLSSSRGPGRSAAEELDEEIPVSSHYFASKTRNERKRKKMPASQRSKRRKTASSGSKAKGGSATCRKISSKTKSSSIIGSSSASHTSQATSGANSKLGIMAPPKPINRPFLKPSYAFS
# Sequence of BLM;DNA2-D277A (P51530 whole entry D277A, chain 2 of 2): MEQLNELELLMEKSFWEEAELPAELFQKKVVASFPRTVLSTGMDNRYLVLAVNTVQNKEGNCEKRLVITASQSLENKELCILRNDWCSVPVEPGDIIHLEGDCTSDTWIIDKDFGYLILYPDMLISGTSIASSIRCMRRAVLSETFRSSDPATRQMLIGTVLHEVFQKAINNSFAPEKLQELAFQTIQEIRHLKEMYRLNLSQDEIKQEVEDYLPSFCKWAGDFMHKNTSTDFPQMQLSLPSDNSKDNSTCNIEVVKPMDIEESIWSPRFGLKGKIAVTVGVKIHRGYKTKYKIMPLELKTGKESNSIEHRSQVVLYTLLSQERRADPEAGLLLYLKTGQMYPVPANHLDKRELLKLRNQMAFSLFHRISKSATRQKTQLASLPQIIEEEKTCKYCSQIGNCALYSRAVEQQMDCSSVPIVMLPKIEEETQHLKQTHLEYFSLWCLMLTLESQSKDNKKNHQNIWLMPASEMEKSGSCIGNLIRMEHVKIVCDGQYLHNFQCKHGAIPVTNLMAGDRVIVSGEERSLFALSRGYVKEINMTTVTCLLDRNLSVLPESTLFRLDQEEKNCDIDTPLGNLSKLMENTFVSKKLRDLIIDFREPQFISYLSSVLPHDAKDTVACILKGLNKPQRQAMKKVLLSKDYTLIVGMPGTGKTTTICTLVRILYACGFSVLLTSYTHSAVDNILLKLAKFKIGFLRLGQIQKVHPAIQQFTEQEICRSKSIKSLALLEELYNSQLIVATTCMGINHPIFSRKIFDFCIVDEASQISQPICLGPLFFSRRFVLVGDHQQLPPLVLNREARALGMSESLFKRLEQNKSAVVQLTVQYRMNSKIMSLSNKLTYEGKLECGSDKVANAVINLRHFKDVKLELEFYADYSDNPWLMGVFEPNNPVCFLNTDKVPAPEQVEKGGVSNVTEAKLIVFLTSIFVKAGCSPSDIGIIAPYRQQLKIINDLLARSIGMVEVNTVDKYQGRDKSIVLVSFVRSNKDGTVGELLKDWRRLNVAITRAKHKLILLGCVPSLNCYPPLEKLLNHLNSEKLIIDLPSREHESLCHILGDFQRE
Binder,binding result [1],binding result [2],binding result [3],binding result [4]
80-mer dsDNA (dsDNA) DNA 1: TTGATAAGAGGTCATTTGAATTCATGGCTTAGAGCTTAATTGCTGAATCTGGTGCTGGGATCCAACATGTTTTAAATATG DNA 2: CATATTTAAAACATGTTGGATCCCAGCACCAGATTCAGCAATTAAGCTCTAAGCCATGAATTCAAATGACCTCTTATCAA,binds,no binding,binds,
"80-mer dsDNA, one end blocked by biotin-streptavidin (dsDNA, 5' biotin on one strand (PSOL7475 or PSOL6214; which one not stated), streptavidin bound) DNA 1: TTGATAAGAGGTCATTTGAATTCATGGCTTAGAGCTTAATTGCTGAATCTGGTGCTGGGATCCAACATGTTTTAAATATG DNA 2: CATATTTAAAACATGTTGGATCCCAGCACCAGATTCAGCAATTAAGCTCTAAGCCATGAATTCAAATGACCTCTTATCAA",,,,binds
